Values belong to the binder of their own block, whether it stands above or below them.
B3: IL-17RB extracellular domain (receptor, UniProt Q9NRM6 18-292, looked up)
chain: REPTVQCGSETGPSPEWMLQHDLIPGDLRDLRVEPVTTSVATGDYSILMNVSWVLRADASIRLLKATKICVTGKSNFQSYSCVRCNYTEAFQTQTRPSGGKWTFSYIGFPVELNTVYFIGAHNIPNANMNEDGPSMSVNFTSPGCLDHIMKYKKKCVKAGSLWDPNITACKKNEETVEVNFTTTPLGNRYMALIQHSTIIGFSQVFEPHQKKQTRASVVIPVTGDSEGATVQLTPYFPTCGSDCIRHKGTVVLCPQTGVPFPLDNNKSKPGGWLP
notes: extracellular domain; biotinylated when immobilised on the SPR chip
B4: IL-17RC extracellular domain (receptor, UniProt Q8NAC3 21-538, looked up)
chain: LERLVGPQDATHCSPVSLEPWGDEERLRVQFLAQQSLSLAPVTAATARTALSGLSGADGRREERGRGKSWVCLSLGGSGNTEPQKKGLSCRLWDSDILCLPGDIVPAPGPVLAPTHLQTELVLRCQKETDCDLCLRVAVHLAVHGHWEEPEDEEKFGGAADSGVEEPRNASLQAQVVLSFQAYPTARCVLLEVQVPAALVQFGQSVGSVVYDCFEAALGSEVRIWSYTQPRYEKELNHTQQLPDCRGLEVWNSIPSCWALPWLNVSADGDNVHLVLNVSEEQHFGLSLYWNQVQGPPKPRWHKNLTGPQIITLNHTDLVPCLCIQVWPLEPDSVRTNICPFREDPRAHQNLWQAARLQLLTLQSWLLDAPCSLPAEAALCWRAPGGDPCQPLVPPLSWENVTVDKVLEFPLLKGHPNLCVQVNSSEKLQLQECLWADSLGPLKDDVLLLETRGPQDNRSLCALEPSGCTSLPSKASTRAARLGEYLLQDLQSGQCLQLWDDDLGALWACPMDKYIHKR
notes: extracellular domain; biotinylated when immobilised

Tests used:
[1] = molecular target: B3; test: SPR, IL-25 captured on immobilised IL-17RB
Experimental: (§1) To examiner whether IL-17RA may only specifically bind IL-25 once IL-25 is captured by IL-17RB, IL-17RB was immobilized on an SPR chip, IL-25 was passed over this chip and the affinity of IL-17RA for the IL-17RB-IL-25 complex was measured. […] At concentrations up to 50 μM, no interaction could be observed between IL-17RA and IL-25, or between the IL-17RB-IL-25 complex and a second IL-17RB molecule.
(§2) Binding affinities were calculated via surface plasmon resonance (SPR) on a Biacore® T100 (GE Healthcare). C-terminally biotinylated IL-17 receptors were coupled to immobilized streptavidin on either an SA or CM4-sensor chip (GE Healthcare). An irrelevant, biotinylated protein was captured at equivalent immobilization densities to control flow cells. To measure the second receptor binding interaction, the cytokine was first captured to the immobilized receptor, followed by the second receptor injection. Low coupling densities (200-400 RU) and excess cytokine concentrations were used to optimize the number of cytokine homodimers bound to a single receptor. The surface was regenerated using 3 M MgCl2 between each cycle. For kinetic experiments, a flow rate of 50 μl/min was used. Data was analyzed using Biacore® T100 evaluation software Version 2.0 (GE Healthcare). Affinities are reported as the mean of at least two independent experiments±the standard error of the mean (s.e.m.).

[2] = molecular target: B4; test: SPR, biotinylated receptor on streptavidin chip, cytokine injected
Experimental: as §2

[3] = molecular target: T1, preformed IL-17RB-IL-25 complex (IL-25 captured by immobilised IL-17RB) (UniProt Q9NRM6 18-292; Q9H293 33-177, biotin on the C-terminal BirA ligase tag); test: SPR; second receptor injected over IL-25 captured on immobilised IL-17RB
T1 construct: extracellular domain;mature; One receptor with one cytokine dimer, assembled stepwise on the SPR chip; not shown: C-terminal BirA ligase tag
T1 sequence 1: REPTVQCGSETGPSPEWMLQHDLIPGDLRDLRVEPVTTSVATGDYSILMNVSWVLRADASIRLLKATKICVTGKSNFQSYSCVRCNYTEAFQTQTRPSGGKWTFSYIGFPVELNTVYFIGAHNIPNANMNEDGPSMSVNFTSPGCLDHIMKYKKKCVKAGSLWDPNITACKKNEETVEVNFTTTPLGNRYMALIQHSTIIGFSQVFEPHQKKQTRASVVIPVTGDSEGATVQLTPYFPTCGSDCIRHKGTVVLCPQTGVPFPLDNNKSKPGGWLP
T1 sequence 2: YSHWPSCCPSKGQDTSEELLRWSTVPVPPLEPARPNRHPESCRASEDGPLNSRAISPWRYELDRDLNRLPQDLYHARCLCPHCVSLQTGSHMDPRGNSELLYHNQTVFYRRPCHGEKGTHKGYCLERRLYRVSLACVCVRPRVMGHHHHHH
Experimental: as §1, §2

[4] = molecular target: T2, preformed IL-17RA-IL-17A complex (IL-17A captured by immobilised IL-17RA) (human, UniProt Q16552 24-155); test: SPR, second receptor injected over IL-17A captured on immobilised IL-17RA
T2 construct: mature; One receptor with one cytokine dimer, assembled stepwise on the SPR chip; not shown: C-terminal BirA ligase tag
T2 sequence (Q16552 other isoform, or with tags, fused parts or gaps): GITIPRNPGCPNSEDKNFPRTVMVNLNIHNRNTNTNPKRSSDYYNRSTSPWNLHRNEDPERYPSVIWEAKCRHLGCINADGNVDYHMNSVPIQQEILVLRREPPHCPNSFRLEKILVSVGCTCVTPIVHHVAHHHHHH
Description: (§3) This strategy involved immobilizing one receptor on a SPR chip at a low coupling density in order to minimize possible homo-dimerization (e.g. cross-linking) of the receptors on the chip. The dimeric IL-17 cytokine was then captured by this receptor so that each receptor would be bound to one dimeric IL-17 ligand, leaving an exposed and accessible second receptor-binding site. The second receptor was subsequently passed over the preformed receptor-cytokine complexes to measure the affinity of the second receptor-binding event. In this fashion, the complex was assembled in a stepwise manner and each of the binding affinities was measured (FIG. 3).
as §2, with “The surface was regenerated using 3 M MgCl2 between each cycle. For kinetic experiments, a flow rate of 50 μl/min was used.” left out, “Affinities are reported as the mean of at least two independent experiments±the standard error of the mean (s.e.m.).” left out

[5] = molecular target: T3, preformed IL-17RC-IL-17A complex (IL-17A captured by immobilised IL-17RC) (UniProt Q8NAC3 21-538; Q16552 24-155, biotin on the C-terminal BirA ligase tag); test: SPR, second receptor injected over IL-17A captured on immobilised IL-17RC
T3 construct: extracellular domain;mature; One receptor with one cytokine dimer, assembled stepwise on the SPR chip; also called existing IL-17RC-IL-17A complex; not shown: C-terminal BirA ligase tag
T3 sequence (Q16552 other isoform, or with tags, fused parts or gaps): as above
Description: as §3
as §2, with “The surface was regenerated using 3 M MgCl2 between each cycle. For kinetic experiments, a flow rate of 50 μl/min was used.” left out, “Affinities are reported as the mean of at least two independent experiments±the standard error of the mean (s.e.m.).” left out

- binding result [1]: binds
B1: IL-25 (ligand)
chain: YSHWPSCCPSKGQDTSEELLRWSTVPVPPLEPARPNRHPESCRASEDGPLNSRAISPWRYELDRDLNRLPQDLYHARCLCPHCVSLQTGSHMDPRGNSELLYHNQTVFYRRPCHGEKGTHKGYCLERRLYRVSLACVCVRPRVMGHHHHHH
notes: mature; The form 'mature' is inferred from secretion; also called IL-17E

- Kd [2]: 4.4 nM
B2: IL-17F (ligand, human)
chain: RKIPKVGHTFFQKPESCPPVPGGSMKLDIGIINENQRVSMSRNIESRSTSPWNYTVTWDPNRYPSEVVQAQCRNLGCINAQGKEDISMNSVPIQQETLVVRRKHQGCSVSFQLEKVLVTVGCTCVTPVIHHVQHHHHHH
notes: mature; For the crystal the His tag was removed with carboxypeptidase A and the complex was lysine-methylated; For SPR the cytokine carried the C-terminal hexa-His tag; also called IL-17F homodimer

Binder: B3
- binding result [3]: no binding (tested: up to 50 µM)

Binder: B4
- Kd [4]: 174 nM
- Kd [5]: 8 µM

Reference: patent US20140105855A1 (published 2014)
